Key:
[1] = Intraocular pharmacokinetic evaluation after intravitreal injection (ELISA of vitreous, retina, aqueous humor); type: in vivo, New Zealand White (NZW) rabbit
Protocol: Bevacizumab drug control, hydrogel (in situ forming hydrogel) in Comparative Example, and hydrogel rod in Example were injected. The rabbits were sacrificed on days 1, 4, 8, 14, 30, 60, 90, and 120. In order to maintain its drug efficacy, the concentration of drug must be maintained from vitreous humor to retina, while the drug may be eliminated to the anterior chamber site. For evaluation, pharmacokinetic analysis of vitreous, retina, and aqueous humor tissues was conducted through ELISA after animal sacrifice and ocular separation by date.
After animal sacrifice and ocular separation by date, pharmacokinetic analysis of vitreous, retina, and aqueous tissues was performed via ELISA. […] The hydrogel rod of Example is a pre-crosslinking matrix, and, after the initial burst release is inhibited by 7 times compared to the control and 3 times compared to the hydrogel of Comparative Example, the drug was continuously released within a certain range and the drug concentration of about 32 µg/mL was maintained on 120 day, satisfying a level above […] which is the drug efficacy threshold of bevacizumab.

[2] = tested on: human umbilical vein endothelial cells (HUVECs); experiment: WST-1 assay, growth inhibition of HUVEC by released drug; type: cell-based; conditions: released drug samples diluted 1:1 in culture medium; fresh bevacizumab 1, 10, 100 µg/mL
Protocol: The long-term efficacy and biological stability of drugs released were evaluated through culture of human umbilical vein endothelial cells (HUVECs), which are cells that are involved in angiogenesis. After culturing HUVECs, they were prepared in 2×10^4 cells/well in a 48-well plate and treated with the long-term released bevacizumab drug samples diluted in 1:1 ratio in a cell culture medium (EBM media containing EGM supplements and 1% P/S) and fresh bevacizumab drug samples by concentration so as to observe cell growth inhibition and safety. For the control of fresh bevacizumab drug samples by concentration, preparation was performed at final concentrations of 1, 10, and 100 µg/mL, diluted in cell culture media.

With bevacizumab the “initial excess elimination maintained until” value ([1]; aqueous humor (drainway)) was 30 days, the elimination curve ([1]; retina) was “fastest elimination curve” and the elimination curve ([1]; vitreous) was “fastest elimination curve”. The “inhibition of HUVEC cell growth (WST-1)” value [2] was “inhibition of cell growth in proportion to the concentration of the drug”.
